We go through 4 sequences from US20030003461.

The target in the data set is TGFβ1 (Homo sapiens) (UniProt P01137). The data set can be described thus: filter. The following applies: 2'-F pyrimidines, 3' fixed sequence removed.

As usually defined, the Kd is the constant that tells how readily two partners part at equilibrium.

Chain of TGFβ1 (Homo sapiens) (P01137 279-390): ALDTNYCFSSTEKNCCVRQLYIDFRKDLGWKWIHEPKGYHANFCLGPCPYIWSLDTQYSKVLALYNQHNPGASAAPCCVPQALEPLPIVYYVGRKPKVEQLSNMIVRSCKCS

Consider “GGGAGANCUGGUAAUUUUGGUUUANCCGUAUNCCCAGACGACUCGCCCGA [30NtruNc 32]”, for which the Kd (plateau 15%) amounted to 22 nM.

The sequence “GGGAGCGGAAUUUUUGUGUAGACGUAUGCCGCUUUGNCCAGACGACUCGCCCGA [30NtruNc 37]” came in with a Kd (plateau 15%) of 0.083 nM. Turning to “GGGAGAGGGGUCUGGAAUUUUUGGNUUACCCGUACGCCAGACGACUCGCCCGA [30NtruNc 9]”, the dissociation constant Kd (plateau 20%) was 0.1 nM. As to “GGGAGGGUUAACCGUUAAGACGGCGUNAUUUUGUCCCCAGACGACUCGCCCGA [30NtruNc 7]”, the Kd (plateau 25%) was 2 nM.
